Target: CN391 (CNA_(1–391)/CNB_(1–170)) (UniProt Q08209 1-391; P63098 1-170)
Experiment: ITC

Sequence of CN391 (CNA_(1–391)/CNB_(1–170)) (Q08209 1-391, chain 1 of 2): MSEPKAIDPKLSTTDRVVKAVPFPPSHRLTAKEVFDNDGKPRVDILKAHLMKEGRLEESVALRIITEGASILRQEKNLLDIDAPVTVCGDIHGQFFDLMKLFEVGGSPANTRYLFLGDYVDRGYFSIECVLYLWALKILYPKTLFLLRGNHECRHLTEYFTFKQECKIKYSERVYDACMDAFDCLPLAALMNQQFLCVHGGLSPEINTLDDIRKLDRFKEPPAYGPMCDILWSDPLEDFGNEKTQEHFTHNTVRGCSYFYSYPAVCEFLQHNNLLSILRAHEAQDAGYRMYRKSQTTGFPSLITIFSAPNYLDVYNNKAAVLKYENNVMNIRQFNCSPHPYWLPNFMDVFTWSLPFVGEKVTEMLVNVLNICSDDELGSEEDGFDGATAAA
Sequence of CN391 (CNA_(1–391)/CNB_(1–170)) (P63098 whole entry, chain 2 of 2): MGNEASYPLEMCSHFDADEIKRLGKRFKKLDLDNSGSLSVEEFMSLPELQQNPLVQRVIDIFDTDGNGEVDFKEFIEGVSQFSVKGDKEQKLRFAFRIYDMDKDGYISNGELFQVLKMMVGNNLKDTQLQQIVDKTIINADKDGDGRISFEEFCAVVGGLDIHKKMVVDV

Kd [nM] | dH [kcal/mol] | Binder
429 ± 85 | -32.4 ± 1.6 | p38-phosphorylated RCAN1 (residues 89 to 197) (domain or fragment, pS108, pS112, pT124, pT153, pT192 (pT152 partially, much more slowly)) not shown
16 ± 5 | -30.7 ± 0.8 | RCAN1 CN-binding domain (residues 89 to 197) (domain or fragment) not shown

— article PMC7458460 (Science Advances, 2020)
